These results are taken from patent publication US20100081612A1 (GENERAL HOSPITAL, published 2010).

Where no end group is shown, it is not given here. [ ]: non-standard residue; d: D form. Cha = N[C@@H](CC1CCCCC1)C(=O)O

The target of assay [1] is T1, wild-type human PTHR (human, UniProt Q03431 27-593).
T1 construct: whole, on cells; also called PTHR-WT; intact PTHR
T1 sequence (looked up): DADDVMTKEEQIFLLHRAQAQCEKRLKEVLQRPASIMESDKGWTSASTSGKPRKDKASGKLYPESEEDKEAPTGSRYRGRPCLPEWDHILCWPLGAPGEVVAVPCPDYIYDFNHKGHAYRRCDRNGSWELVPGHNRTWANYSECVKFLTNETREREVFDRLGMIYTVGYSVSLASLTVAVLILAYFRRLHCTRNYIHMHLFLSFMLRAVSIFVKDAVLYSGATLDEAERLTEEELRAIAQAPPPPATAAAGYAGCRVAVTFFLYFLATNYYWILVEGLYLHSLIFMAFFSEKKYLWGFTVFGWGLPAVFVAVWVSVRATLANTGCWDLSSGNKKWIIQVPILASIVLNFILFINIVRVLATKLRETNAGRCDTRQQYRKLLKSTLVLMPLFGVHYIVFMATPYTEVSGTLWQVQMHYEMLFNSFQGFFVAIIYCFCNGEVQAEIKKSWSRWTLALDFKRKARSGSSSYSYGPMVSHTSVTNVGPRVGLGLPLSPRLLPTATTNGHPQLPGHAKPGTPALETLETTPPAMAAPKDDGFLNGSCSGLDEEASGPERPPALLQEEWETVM
Description: competition binding, HKRK-B7 cells, 125I-PTH(1-34) tracer. As for the experimental part: Receptor binding—Binding to the wild-type human PTHR in intact HKRK-B7 cells and ROS 17/2.8 cells was assessed using ¹²⁵I-PTH(1-34) as a tracer radioligand, as described (Shimizu, M., (2001) Endocrinology 142:3068-3074). In brief, the cells in 24-well plates (about 500,000 cells per well) were incubated in binding buffer containing radioligand (about 100,000 cpm per well) with or without unlabeled peptide ligand (3×10⁻⁹ to 1×10⁻⁵ M) for four hours at 15° C. The binding mixture was then removed by aspiration, the cells were rinsed three times with binding buffer, lysed in 1 M NaOH, and the entire lysate was counted for gamma-irradiation in a gamma counter. Binding to PTHR-delNt in COS-7 cell membranes was assessed in 96-well, vacuum filtration plates (Multiscreen-Durapore HV, […], Millipore Corp., Millford, Mass.) using ¹²⁵I-[Aib^{1,3},M]PTH(1-15)NH₂ as a tracer radioligand, as described (Dean, T., (2006) Mol Endocrinol 20:931-942). In brief, cell membranes (20 μg/well) were incubated in membrane binding buffer containing radioligand (30,000 cpm/well) with or without unlabeled peptide ligand (3×10⁻⁹ to 1×10⁻⁵ M) for 90 minutes at 21° C. The plates were then subject to rapid vacuum filtration, the filters were washed once with buffer, detached from the plate and counted for gamma-irradiation in a gamma counter. Non-specific binding was defined as the binding observed in the presence of 1×10⁻⁶ M PTH(1-31)NH₂ for HKRK-B7 and ROS 17/2.8 cells, and 1×10⁻⁶ M [Aib^{1,3},M]PTH(1-15)NH₂ for PTHR-delNt. Specifically bound radioactivity was calculated as a percentage of the radioactivity specifically bound in the absence of competing ligand.
Cyclohexylalanine and glutamate substitutions were introduced into [Ala¹,Arg¹⁹]hPTH(1-31)NH₂. The helical residue values were calculated from [θ]₂₂₂, the mean-residue elipticities observed in the CD spectra at 222 nm. Competition binding studies were performed in intact HKRK-B7 cells stably transfected with the hPTHR using ¹²⁵I-[Nle^{8,21},Tyr³⁴]rPTH(1-34)NH ₂ tracer radioligand, and in membranes prepared from COS-7 cells transiently transfected with hPTHR-delNt and a negative-dominant Gαs using ¹²⁵I-[Aib^{1,3},Nle⁸,Gln¹⁰,Har¹¹,Ala¹²,Trp¹⁴,Tyr¹⁵]rPTH(1-15)NH₂ tracer radioligand. Binding values (nM) are means (+/−s.e.m.) of data from the number of experiments indicated (n).

Assay [2] has as its target PTHR-delNt (human) (UniProt Q03431). Description: competition binding, COS-7 membranes, 125I-[Aib1,3,M]PTH(1-15) tracer.
Assay [3] concerns the target T1, wild-type human PTHR. Description: competition binding, HKRK-B7 cells, 125I-PTH(1-34) tracer. This is another data set of the same source.

B1: [Ala^1,Arg^19]hPTH(1-31)NH2 Asp^30→Cha (peptide)
peptide: AVSEIQLMHNLGKHLNSMRRVEWLRKKLQ[Cha]V-NH2
modifications: N-terminus assumed
SMILES: CC[C@H](C)[C@H](NC(=O)[C@H](CCC(=O)O)NC(=O)[C@H](CO)NC(=O)[C@@H](NC(=O)[C@H](C)N)C(C)C)C(=O)N[C@@H](CCC(N)=O)C(=O)N[C@@H](CC(C)C)C(=O)N[C@@H](CCSC)C(=O)N[C@@H](Cc1c[nH]cn1)C(=O)N[C@@H](CC(N)=O)C(=O)N[C@@H](CC(C)C)C(=O)NCC(=O)N[C@@H](CCCCN)C(=O)N[C@@H](Cc1c[nH]cn1)C(=O)N[C@@H](CC(C)C)C(=O)N[C@@H](CC(N)=O)C(=O)N[C@@H](CO)C(=O)N[C@@H](CCSC)C(=O)N[C@@H](CCCNC(=N)N)C(=O)N[C@@H](CCCNC(=N)N)C(=O)N[C@H](C(=O)N[C@@H](CCC(=O)O)C(=O)N[C@@H](Cc1c[nH]c2ccccc12)C(=O)N[C@@H](CC(C)C)C(=O)N[C@@H](CCCNC(=N)N)C(=O)N[C@@H](CCCCN)C(=O)N[C@@H](CCCCN)C(=O)N[C@@H](CC(C)C)C(=O)N[C@@H](CCC(N)=O)C(=O)N[C@@H](CC1CCCCC1)C(=O)N[C@H](C(N)=O)C(C)C)C(C)C
As to B1, the IC50 in assay [1] came to 54 nM; in assay [2] it was 305 nM. In addition, the fold change in binding affinity vs [Ala^1,Arg^19]PTH(1-31)NH2 in assay [2] is less than 3 fold; in assay [3], no more than 6 fold.
In the case of AVSEIQLMHNLGKHLNSMRRVEWL[Cha]KKLQDV-NH2 [[Ala^1,Arg^19]hPTH(1-31)NH2 Arg^25→Cha], the concentration for half-maximal inhibition (IC50) in assay [1] is 103 nM; in assay [2], 2710 nM. In addition, the “fold change in binding affinity vs [Ala^1,Arg^19]PTH(1-31)NH2” value in assay [3] was no more than 6 fold.

B2: [Ala^1,Arg^19]hPTH(1-31)NH2 Gln^29→Cha (peptide)
peptide: AVSEIQLMHNLGKHLNSMRRVEWLRKKL[Cha]DV-NH2
modifications: N-terminus assumed
SMILES: CC[C@H](C)[C@H](NC(=O)[C@H](CCC(=O)O)NC(=O)[C@H](CO)NC(=O)[C@@H](NC(=O)[C@H](C)N)C(C)C)C(=O)N[C@@H](CCC(N)=O)C(=O)N[C@@H](CC(C)C)C(=O)N[C@@H](CCSC)C(=O)N[C@@H](Cc1c[nH]cn1)C(=O)N[C@@H](CC(N)=O)C(=O)N[C@@H](CC(C)C)C(=O)NCC(=O)N[C@@H](CCCCN)C(=O)N[C@@H](Cc1c[nH]cn1)C(=O)N[C@@H](CC(C)C)C(=O)N[C@@H](CC(N)=O)C(=O)N[C@@H](CO)C(=O)N[C@@H](CCSC)C(=O)N[C@@H](CCCNC(=N)N)C(=O)N[C@@H](CCCNC(=N)N)C(=O)N[C@H](C(=O)N[C@@H](CCC(=O)O)C(=O)N[C@@H](Cc1c[nH]c2ccccc12)C(=O)N[C@@H](CC(C)C)C(=O)N[C@@H](CCCNC(=N)N)C(=O)N[C@@H](CCCCN)C(=O)N[C@@H](CCCCN)C(=O)N[C@@H](CC(C)C)C(=O)N[C@@H](CC1CCCCC1)C(=O)N[C@@H](CC(=O)O)C(=O)N[C@H](C(N)=O)C(C)C)C(C)C
For B2, the IC50 in assay [1] came to 61 nM; in assay [2], 319 nM. The fold change in binding affinity vs [Ala^1,Arg^19]PTH(1-31)NH2 was less than 3 fold in assay [2] and no more than 6 fold in assay [3].

B3: [Ala^1,Arg^19]hPTH(1-31)NH2 Val^31→Cha (peptide)
peptide: AVSEIQLMHNLGKHLNSMRRVEWLRKKLQD[Cha]-NH2
modifications: N-terminus assumed
SMILES: CC[C@H](C)[C@H](NC(=O)[C@H](CCC(=O)O)NC(=O)[C@H](CO)NC(=O)[C@@H](NC(=O)[C@H](C)N)C(C)C)C(=O)N[C@@H](CCC(N)=O)C(=O)N[C@@H](CC(C)C)C(=O)N[C@@H](CCSC)C(=O)N[C@@H](Cc1c[nH]cn1)C(=O)N[C@@H](CC(N)=O)C(=O)N[C@@H](CC(C)C)C(=O)NCC(=O)N[C@@H](CCCCN)C(=O)N[C@@H](Cc1c[nH]cn1)C(=O)N[C@@H](CC(C)C)C(=O)N[C@@H](CC(N)=O)C(=O)N[C@@H](CO)C(=O)N[C@@H](CCSC)C(=O)N[C@@H](CCCNC(=N)N)C(=O)N[C@@H](CCCNC(=N)N)C(=O)N[C@H](C(=O)N[C@@H](CCC(=O)O)C(=O)N[C@@H](Cc1c[nH]c2ccccc12)C(=O)N[C@@H](CC(C)C)C(=O)N[C@@H](CCCNC(=N)N)C(=O)N[C@@H](CCCCN)C(=O)N[C@@H](CCCCN)C(=O)N[C@@H](CC(C)C)C(=O)N[C@@H](CCC(N)=O)C(=O)N[C@@H](CC(=O)O)C(=O)N[C@@H](CC1CCCCC1)C(N)=O)C(C)C
With B3, the IC50 in assay [1] stood at 66 nM; in assay [2] it was 466 nM. The figures for the fold change in binding affinity vs [Ala^1,Arg^19]PTH(1-31)NH2 in assay [2] and in assay [3] were less than 3 fold and no more than 6 fold, respectively.

B4: [Ala^1,Arg^19]hPTH(1-31)NH2 Leu^28→Cha (peptide)
peptide: AVSEIQLMHNLGKHLNSMRRVEWLRKK[Cha]QDV-NH2
modifications: N-terminus assumed
SMILES: CC[C@H](C)[C@H](NC(=O)[C@H](CCC(=O)O)NC(=O)[C@H](CO)NC(=O)[C@@H](NC(=O)[C@H](C)N)C(C)C)C(=O)N[C@@H](CCC(N)=O)C(=O)N[C@@H](CC(C)C)C(=O)N[C@@H](CCSC)C(=O)N[C@@H](Cc1c[nH]cn1)C(=O)N[C@@H](CC(N)=O)C(=O)N[C@@H](CC(C)C)C(=O)NCC(=O)N[C@@H](CCCCN)C(=O)N[C@@H](Cc1c[nH]cn1)C(=O)N[C@@H](CC(C)C)C(=O)N[C@@H](CC(N)=O)C(=O)N[C@@H](CO)C(=O)N[C@@H](CCSC)C(=O)N[C@@H](CCCNC(=N)N)C(=O)N[C@@H](CCCNC(=N)N)C(=O)N[C@H](C(=O)N[C@@H](CCC(=O)O)C(=O)N[C@@H](Cc1c[nH]c2ccccc12)C(=O)N[C@@H](CC(C)C)C(=O)N[C@@H](CCCNC(=N)N)C(=O)N[C@@H](CCCCN)C(=O)N[C@@H](CCCCN)C(=O)N[C@@H](CC1CCCCC1)C(=O)N[C@@H](CCC(N)=O)C(=O)N[C@@H](CC(=O)O)C(=O)N[C@H](C(N)=O)C(C)C)C(C)C
For the molecule B4, the results for the IC50 in assay [1] and in assay [2] were 65 nM and 226 nM, respectively. Further, the fold change in binding affinity vs [Ala^1,Arg^19]PTH(1-31)NH2 in assay [2] was less than 3 fold; in assay [3] it was no more than 6 fold.

B5: [Ala^1,Arg^19]hPTH(1-31)NH2 Lys^26→Cha (peptide)
peptide: AVSEIQLMHNLGKHLNSMRRVEWLR[Cha]KLQDV-NH2
modifications: N-terminus assumed
SMILES: CC[C@H](C)[C@H](NC(=O)[C@H](CCC(=O)O)NC(=O)[C@H](CO)NC(=O)[C@@H](NC(=O)[C@H](C)N)C(C)C)C(=O)N[C@@H](CCC(N)=O)C(=O)N[C@@H](CC(C)C)C(=O)N[C@@H](CCSC)C(=O)N[C@@H](Cc1c[nH]cn1)C(=O)N[C@@H](CC(N)=O)C(=O)N[C@@H](CC(C)C)C(=O)NCC(=O)N[C@@H](CCCCN)C(=O)N[C@@H](Cc1c[nH]cn1)C(=O)N[C@@H](CC(C)C)C(=O)N[C@@H](CC(N)=O)C(=O)N[C@@H](CO)C(=O)N[C@@H](CCSC)C(=O)N[C@@H](CCCNC(=N)N)C(=O)N[C@@H](CCCNC(=N)N)C(=O)N[C@H](C(=O)N[C@@H](CCC(=O)O)C(=O)N[C@@H](Cc1c[nH]c2ccccc12)C(=O)N[C@@H](CC(C)C)C(=O)N[C@@H](CCCNC(=N)N)C(=O)N[C@@H](CC1CCCCC1)C(=O)N[C@@H](CCCCN)C(=O)N[C@@H](CC(C)C)C(=O)N[C@@H](CCC(N)=O)C(=O)N[C@@H](CC(=O)O)C(=O)N[C@H](C(N)=O)C(C)C)C(C)C
As to B5, the IC50 worked out at 172 nM in assay [1] and 1870 nM in assay [2]. Moreover, the “fold change in binding affinity vs [Ala^1,Arg^19]PTH(1-31)NH2” value in assay [3] is no more than 6 fold.
